Experimental findings from US20260028587A1 are described below.

In the assay the target is human TMEM119 (transmembrane protein 119) (human) (UniProt Q4V9L6). Nature of the assay: flow cytometry on primary human brain cell suspensions. In general terms: Flow cytometry measures light scatter and fluorescence of single cells or particles in a stream.
Chain of UniProt Q4V9L6 (Q4V9L6 26-283): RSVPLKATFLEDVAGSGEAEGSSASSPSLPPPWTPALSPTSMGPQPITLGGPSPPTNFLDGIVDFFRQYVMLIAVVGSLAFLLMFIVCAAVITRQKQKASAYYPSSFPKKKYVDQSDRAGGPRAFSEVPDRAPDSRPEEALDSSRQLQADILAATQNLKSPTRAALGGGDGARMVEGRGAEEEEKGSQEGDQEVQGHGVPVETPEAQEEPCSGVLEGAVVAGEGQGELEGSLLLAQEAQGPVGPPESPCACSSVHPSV

“Mouse anti-hTMEM119 monoclonal clone A16075D (antibody)”: the percent of CD45+/CD11B+ human brain cells stained lay within 70 to 98%.
